Measured values: PMC11398535 (bioRxiv, 2024)

Biological target: T1, peptide-8 (DEIVNKVL), derived from the ESCRT-III family member Vps2p
T1 peptide: {5(6)‑carboxyfluorescein}-DEIVNKVL-NH2
Experiment: fluorescence polarisation

fold tighter than Vps4p: 8 fold
B1: Vps4p^L7C/A43C (MIT domain stabilised by a disulfide bond) (enzyme, S. cerevisiae, UniProt P52917 1-437, looked up)
chain: MSTGDFCTKGIELVQKAIDLDTATQYEEAYTAYYNGLDYLMLCLKYEKNPKSKDLIRAKFTEYLNRAEQLKKHLESEEANAAKKSPSAGSGSNGGNKKISQEEGEDNGGEDNKKLRGALSSAILSEKPNVKWEDVAGLEGAKEALKEAVILPVKFPHLFKGNRKPTSGILLYGPPGTGKSYLAKAVATEANSTFFSVSSSDLVSKWMGESEKLVKQLFAMARENKPSIIFIDEVDALTGTRGEGESEASRRIKTELLVQMNGVGNDSQGVLVLGATNIPWQLDSAIRRRFERRIYIPLPDLAARTTMFEINVGDTPCVLTKEDYRTLGAMTEGYSGSDIAVVVKDALMQPIRKIQSATHFKDVSTEDDETRKLTPCSPGDDGAIEMSWTDIEADELKEPDLTIKDFLKAIKSTRPTVNEDDLLKQEQFTRDFGQEGN
modifications: disulfide bond between C7 and C43 of the MIT domain
